# Experimental data: the nanobody polyreactivity screen of Harvey et al. (2022)
# Assay: yeast display, Sf9 membrane polyspecificity reagent, FACS + sequencing; frameworks hold sequencing errors
# How it was run: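 In a synthetic yeast display library (Saccharomyces cerevisiae BJ5465), nanobody expression was induced with galactose for 36–48 hours. FACS gates were set low and high (top ~1%) using anti-HA fluorescence for expression and streptavidin fluorescence for binding of the Sf9 membrane reagent. Each polyreactivity label is drawn from the gate of origin.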
row,Sequence,polyreactivity (PSR sort gate)
1,QVQLVESGGGLVQAGGSLRLSCAASGRIFDGYAMGWYRQAPGTERELVAAITDSGGSTYYADSVKGRFTISRDNAKNTVYLQMNSLKPEDTAVYYCAAEEIDYTDVTSGYEYWGQGTQVTVSS,high polyreactivity
2,QVQLVESGGGLVQAGGSLRLSCAASGLIFIRYAMGWYRQAPGKERELVAAISWPGGNTYYADSVKGRFTISRDNAKNTVYLQMNSLKPEDTAVYYCAAVGTWQHRSYGYWGQGTQVTVSS,high polyreactivity
3,QVQLVESGGGLVQAGGSLRLSCAASGFIFCINAMGWYRQAPGKERELVAAISRSGGRTYYADSVKGRFTISRDNAKNTVYLQMNSLKPEDTAVYYCAADKASYTNYDGDYWGQGTQVTVSS,high polyreactivity
4,QVQLVESGGALVQAGGSLRLSCAASGRTFAKYAMGWYRQAPGKERELFAAINSSGGSTYYADSVKGRFTISRDNAKNTVYLQMNSLKPEDTAVYYCADLGIGSYRRYSGYDYWGQGTQVTVSS,low polyreactivity
5,QVQLVESGGGLVHAGGSLRLSSAASGSIYYYAMGWYRQAPGKERELVAAITWRGGRTYYADSVKGRFTISRDNAKNNVYLQMNILKPEDTAVYYCNDVAPGKYNHWGQGTQVNVSS,high polyreactivity
6,QVQLLESGGGLVQAGGSLRLSCAASGSILIKYAMGWYRQAPGKERELVATITSGGSTYYADSVKGRFTISRDNAKNTVYLQMNSLKPEDTAVYYCATGQYYYYGIVAFFELDYWGQGTQVTVSS,low polyreactivity
7,QVQLVESGGGLVQAGGSLRLSCAASGSIFPYYTMGWYRQAPGKERELVATITTGGSTNYADSVKGRFTISRDNAENTVYLQMNCLKPEDIAVYYCNKDGVVEVRFTGRQEYDYWGQGTQVTVSS,low polyreactivity
8,QVQLVESGGGLVQAGGSLRLSCAASGLIFYRYAMGWYRQAPGKERELVAAISRSGSSTYYADSVKGRFTISRDNAKNTFYLQINSLKPEDTAVYYCNAGYGWIWDDRGYWGQGTQVTVSS,high polyreactivity
9,QDQLVESGGGLVQAGGRLRLSCAASGSIFCGNAMGWYRQAPGKERDLVAAITYRSGRTYYADSVKGRFTISRDNAKNTVYFQMNSLKPEDTAVYDCAAEFGGASRYTYNYWGQGTQVTVSS,low polyreactivity
10,QVQLVEAGGGLVQAGGSLRLSCAASGSIFAQNVRGWSRQAPGKERELVAAISYSGGTTYYADSVKGRFTISRDNAMNTVYLQMNSLKPEDTAVYDCAAEFGVYEYDYWGQGTQVTVSS,low polyreactivity
11,QVQLVESGGGLVQAGGSLRLSCAASGRTFRVYAMGWYRQAPGKERELVATITSSGGSTYYADSVKGRLTISRDNAMNTVDLQMNSLKPEDTAGYYCNVSVYYKYVSSYYYWGQGTQVTVSS,low polyreactivity
12,QVQLVESGGGLVQAGASRRLSCAASVFTFGDNAMGWSRQATGKDRELVDAITSSGSTNYADSVKGRFTMSRDIAKNTVYLQLNSLTQEDTAVNYCNAEDSVDAPVYKDLGSEYDSWGQGTQVTVSS,low polyreactivity
13,QVQLVESGGGLVQAGGSLRLSCAASGRTFSAYAMGWYRQAPGKERELVARITSVDSTNYADSVKGRFTISRDNAKNTVYLQMNSLKPEDTAVYYCNATFGYPFVEYDDYWGQGTQVTVSS,low polyreactivity
14,QVQLVESGGGLVQAGGSLRLSCAASGRIFKRYAMGWYRQAPGKERELVAAISRGASTYYADSVKGRFTISRDNAKNTVYLQMNSLKPEDTAVYYCAAKGATPHYDYWGQGTQVTVSS,high polyreactivity
15,QVQLVESGGGLVQAGGSLRLSCAASGSTFGFNAMGWYRQAPGKERELVAAISRSGGSTYYADSVKGRFTISRDNAKNTVYLQMNSLKPEDTAVYYCAVGYRYLKWVDYWGQGTQVTVSS,high polyreactivity
16,QVQLVESGGGLVQAGGSLRLSCAASGFTFPDYAMGWYRQAPGKERELVAAISSDGSTYYADSVKGRFTISRDNAKNTVYLQMNSLKPEDTAVYYCAAYVVWLYGYDYWGQGTKVTVSS,low polyreactivity
17,QVQLVESGGGLVQAGGSLRLSCAASGLTFRFYTMGWYRQAPGKERELVAAISTSGGSTYYADSVKGRFTISRDNAKNTVYLQMNSLKPEDTAVYYCNAQVWFYYFQSGYDYWGQGTQVTVSS,low polyreactivity
18,QVQLVESGGGLVQAGGSLRLSCAASGSTFKVYAMGWYRQAPGKERELVATISKSGSTYADSVKGRFTISRDNAKNTVYLQMNCLKPEDTAVYYCAADLYTYPRTRRRAYGYWGQGTQVTVSS,high polyreactivity
19,QVQLVESGGGLVKAGGSLRLSCAASGFTFWRNTMGWYRQAPGKERELVAAIDRSGSSTYYADSVKGRFTISRDNATNNVYFQMNSLKPEDTAVYYCAADHTYFTAYGDYWGQGTQVTVSS,low polyreactivity
20,QVQLVDSGGGLVQAGGSLRLSCAASGLTFQYKAMGRYRHAPGKERELVATISQSGGSTYYADSVKGRFTISRDNAKNTVYLQMNSLKPEDTAVYYCAADGAWGTASYSVAFDYWGQGTQVTVSS,low polyreactivity
21,QVQLVESGGGLVQAGGSLRLSCAASGFTFWDNAMGWYRQAPGKERELVAAISRRGGTTYYADSVKGRFTISRDNAKNTVYLQMNRLKPEATAVYYCNARRRSVPYRYDFWGQGTQVTVSS,high polyreactivity
22,HVQLVESGGGLVQAGGSLRLSSAASGITFYHNAMGWYRQAPGKEMELVAVSSRGGSTYYADSVKGRFTISRDNAKNTVYLQMNSLKPEDTAVYYCNARFWSYRGQVWYYYWGQGTQVTVSS,high polyreactivity
